Data: paper PMC5371818, “Suppression of FOXM1 Transcriptional Activities via a Single-Stranded DNA Aptamer Generated by SELEX”

Key:
GST-FOXM1 DBD [1] = molecular target: T1, GST-FOXM1 DBD (UniProt Q08050 225-355); experiment: EMSA; EMSA and FP: 20 mM Tris-Cl, 50 mM KCl, 10% glycerol, 0.5 mM EDTA, 0.2 mM DTT, pH 7.6, 30 min on ice; EMSA 50 nM probe, FP 10 nM probe (50 nM in Fig. 1D legend); conditions: protein: recombinant; tags: N-terminal GST (pGEX-4T-1); label: 5'-ROX
T1 sequence: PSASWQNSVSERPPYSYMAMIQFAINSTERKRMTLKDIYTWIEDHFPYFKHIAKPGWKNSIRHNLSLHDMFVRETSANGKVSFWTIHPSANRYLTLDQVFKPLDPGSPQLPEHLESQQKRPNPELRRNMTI

His-FOXM1 full-length = molecular target: T2, His-FOXM1 full-length (UniProt Q08050 1-763); experiment: fluorescence polarization; EMSA and FP: 20 mM Tris-Cl, 50 mM KCl, 10% glycerol, 0.5 mM EDTA, 0.2 mM DTT, pH 7.6, 30 min on ice; EMSA 50 nM probe, FP 10 nM probe (50 nM in Fig. 1D legend); conditions: protein: recombinant, tags: C-terminal His6 (encoded by reverse primer S6)
T2 sequence: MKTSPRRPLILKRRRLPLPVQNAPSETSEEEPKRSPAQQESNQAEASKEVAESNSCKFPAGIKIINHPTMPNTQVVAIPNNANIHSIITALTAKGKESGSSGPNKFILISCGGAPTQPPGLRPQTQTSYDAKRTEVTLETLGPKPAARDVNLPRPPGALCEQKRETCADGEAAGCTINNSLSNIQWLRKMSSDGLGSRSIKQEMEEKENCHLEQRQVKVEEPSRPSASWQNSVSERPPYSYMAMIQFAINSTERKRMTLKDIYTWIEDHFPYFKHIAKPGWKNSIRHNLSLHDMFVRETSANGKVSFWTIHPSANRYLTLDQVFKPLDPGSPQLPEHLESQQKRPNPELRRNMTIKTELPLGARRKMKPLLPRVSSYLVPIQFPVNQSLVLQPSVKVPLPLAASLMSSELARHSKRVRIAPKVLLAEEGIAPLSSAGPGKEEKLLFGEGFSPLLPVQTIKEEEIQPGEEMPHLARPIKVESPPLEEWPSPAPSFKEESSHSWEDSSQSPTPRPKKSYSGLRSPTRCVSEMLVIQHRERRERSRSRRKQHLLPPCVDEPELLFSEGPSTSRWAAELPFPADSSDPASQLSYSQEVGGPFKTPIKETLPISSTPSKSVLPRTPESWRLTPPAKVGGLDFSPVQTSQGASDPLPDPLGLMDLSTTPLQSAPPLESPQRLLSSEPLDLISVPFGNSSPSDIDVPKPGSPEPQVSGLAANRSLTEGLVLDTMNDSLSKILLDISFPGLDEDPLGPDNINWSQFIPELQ

GST-FOXM1 DBD [2] = molecular target: T1, GST-FOXM1 DBD; experiment: as above; conditions: protein: recombinant, tags: N-terminal GST (pGEX-4T-1)
[3] = label: 5'-FAM on forward strand (hot) or none (cold), blunt
[4] = label: 5'-ROX (hot) or none (cold)

B1: Control Apt (ssDNA)
DNA: TCACTTAAAAAAAAAAAACTCATGAAAAAAAAAAAATCCTTT
binding result (GST-FOXM1 DBD [1]): no binding

B2: FOXM1 dsDNA probe (dsDNA)
DNA 1: TTTGTTTATTTGTTTGTTTATTTG
DNA 2: CAAATAAACAAACAAATAAACAAA
Kd (His-FOXM1 full-length; [3]): 214 ± 249 nM
Kd (GST-FOXM1 DBD [2]; [3]): 543 ± 148 nM

B3: FOXM1 Apt (C1) (ssDNA)
DNA: TCACTTCACACCGCATCTCTACGTCCGGTTGCGCTTTCCTTT
Kd (His-FOXM1 full-length; [4]): 172 ± 26.6 nM
Kd (GST-FOXM1 DBD [2]; [4]): 64.8 ± 25.8 nM

B4: M-FOXM1 Apt (ssDNA)
DNA: TCACTTCACACCGCATCTCTACGTCCGGTTGCGCTTTCCTTT
modifications: phosphorothioate internucleotide linkages
Kd (His-FOXM1 full-length): 63.9 ± 6.6 nM
